Experimental findings from US20230043577 are described below.

Holding throughout (experiment): EMSA
(Mobility shift assays separate free from complexed probe on a gel.)

Data set [1] concerns the target MeCP2 MBD (hMeCP2[90-181]) wild type (Homo sapiens) (UniProt P51608).
In data set [2] the test system is MeCP2 MBD S134C S134C (Homo sapiens). The note with it: same buffer.
Data set [3] has as its system MeCP2 MBD R133C R133C (Homo sapiens). As to conditions: same buffer.
Setting [4] is: 5hmC in CpG of one strand, 5fC in the other.
[5] abbreviates: 5mC in CpG of one strand, 5hmC in the other.
Where [6] appears, read: unmodified C in CpG of one strand, 5hmC in the other.
The mark [7] stands for this setting: 5mC in CpG of one strand, 5fC in the other.

Chain of MeCP2 MBD (hMeCP2[90-181]) wild type (Homo sapiens) (P51608 90-181): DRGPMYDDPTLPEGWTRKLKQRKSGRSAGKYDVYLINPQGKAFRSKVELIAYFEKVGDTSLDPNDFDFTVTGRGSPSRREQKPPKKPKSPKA

Broadly, the Kd is a measure of binding affinity in units of concentration. A higher Kd goes with a looser complex. For the substance 24-mer mC/mC CpG duplex, the Kd in data set [1] (5mC in CpG on both strands, room temperature, 50 ng/uL poly(dA)poly(dT), 20 mM HEPES pH 7.3 buffer) was determined as 27 nM; in data set [2] (5mC in CpG on both strands), 117 nM; in data set [3] (5mC in CpG on both strands), 118 nM.
For 24-mer hmC/fC CpG duplex, the Kd in data set [1] (5hmC in CpG of one strand, 5fC in the other, same buffer) was found to be 540 nM; in data set [2] (setting [4]), 4600 nM; in data set [3] (setting [4]) it was 1630 nM.
On to 24-mer mC/hmC CpG duplex, for which the Kd was found to be 224 nM in data set [1] (5mC in CpG of one strand, 5hmC in the other, same buffer); 1150 nM in data set [2] (setting [5]); 660 nM in data set [3] (setting [5]).
With 24-mer C/hmC CpG duplex, the Kd in data set [1] (unmodified C in CpG of one strand, 5hmC in the other, same buffer) was 1080 nM; in data set [2] (setting [6]), 7600 nM; in data set [3] (setting [6]), 8100 nM.
Consider 24-mer mC/fC CpG duplex, for which the Kd stood at 197 nM in data set [1] (5mC in CpG of one strand, 5fC in the other, same buffer); 790 nM in data set [2] (setting [7]); 540 nM in data set [3] (setting [7]).
Consider 24-mer hmC/hmC CpG duplex, for which the Kd is 970 nM in data set [1] (5hmC in CpG on both strands, same buffer); 7600 nM in data set [2] (5hmC in CpG on both strands); 2560 nM in data set [3] (5hmC in CpG on both strands).
